Residue numbers refer to the chain shown, from its start.

5 molecules from patent US20240150491A1 (Genentech, published 2024) can be followed below.

To fix the notation:
B1: hu.10C5VY.hu14H11c.L2H11 WT (bispecific antibody, human IgG1, kappa, N297G)
heavy 1: not shown
light 1: DIQMTQSPSSLSASVGDRVTITCLASEDIASSVSWYQKKPGKAPKLLIYGASNLESGVPSRFSGSGSGTDYTLTISSLQPEDFATYYCLGGYSYSSTGTAFGGGTKVEIKRTVAAPSVFIFPPSDEQLKSGTASVECLLNNFYPREAKVQWKVDNALQSGNSQESVTEQDSKDSTYSLSSTLTLSKADYEKHKVYACEVTHQGLSSPVTKSFNRGEC
heavy 2: EVQLVESGGGLVQPGGSLRLSCAASGFSLSSYGVTWVRKAPGKGLEWIGYITSVYGVSYYASWAKSRSTISRDTSKNTVYLQMGSLRAEDMAVYYCARENPDYGYAYDAWGQGTTVTVSSASTKGPSVFPLAPSSKSTSGGTAALGCLVKDYFPEPVTVSWNSGALTSGVHTFPAVLQSSGLYSLESVVTVPSSSLGTQTYICNVNHKPSNTKVDKKVEPKSCDKTHTCPPCPAPELLGGPSVFLFPPKPKDTLMISRTPEVTCVVVDVSHEDPEVKFNWYVDGVEVHNAKTKPREEQYGSTYRVVSVLTVLHQDWLNGKEYKCKVSNKALPAPIEKTISKAKGQPREPQVYTLPPSREEMTKNQVSLSCAVKGFYPSDIAVEWESNGQPENNYKTTPPVLDSDGSFFLVSKLTVDKSRWQQGNVFSCSVMHEALHNHYTQKSLSLSPGK
light 2: AIRMTQSPSSFSASTGDRVTITCQASESISNELSWYQEKPGKAPKLLIYYASTLASGVPSRFSGSGSGTDFTLTISSLQPEDFATYYCAQGYGSSGVENVFGGGTKVEIKRTVAAPSVFIFPPSDEQLKSGTASVKCLLNNFYPREAKVQWKVDNALQSGNSQESVTEQDSKDSTYSLSSTLTLSKADYEKHKVYACEVTHQGLSSPVTKSFNRGEC
B2: hu.10C5VY.hu14H11c.L2H11 LS (bispecific antibody, human IgG1, kappa, N297G)
heavy 1: EQQLVESGGGLIQPGGSLRLSCAASGFSFSSSYYMSWVREAPGKGLEWVSSIYAGSSGAPYYAGWAKGRFTISRDNSKNTLYLQMNSLRAEDTAVYYCAREGFAETGGYGYAAYFNLWGPGTLVTVSSASTKGPSVFPLAPSSKSTSGGTAALGCLVKDYFPEPVTVSWNSGALTSGVHTFPAVLQSSGLYSLKSVVTVPSSSLGTQTYICNVNHKPSNTKVDKKVEPKSCDKTHTCPPCPAPELLGGPSVFLFPPKPKDTLMISRTPEVTCVVVDVSHEDPEVKFNWYVDGVEVHNAKTKPREEQYGSTYRVVSVLTVLHQDWLNGKEYKCKVSNKALPAPIEKTISKAKGQPREPQVYTLPPSREEMTKNQVSLWCLVKGFYPSDIAVEWESNGQPENNYKTTPPVLDSDGSFFLYSKLTVDKSRWQQGNVFSCSVLHEALHSHYTQKSLSLSPGK
light 1: B1 light 1
heavy 2: B1 heavy 2 with M431L, N437S
light 2: B1 light 2
B3: hu10C5VY (antibody, V domains shown)
VH: EVQLVESGGGLVQPGGSLRLSCAASGFSLSSYGVTWVRQAPGKGLEWIGYITSVYGVSYYASWAKSRSTISRDTSKNTVYLQMGSLRAEDMAVYYCARENPDYGYAYDAWGQGTTVTVSS
VL: AIRMTQSPSSFSASTGDRVTITCQASESISNELSWYQQKPGKAPKLLIYYASTLASGVPSRFSGSGSGTDFTLTISSLQPEDFATYYCAQGYGSSGVENVFGGGTKVEIK
B4: hu.14H11c.L2H11-hIgG1 (antibody, V domains shown)
VH: EQQLVESGGGLIQPGGSLRLSCAASGFSFSSSYYMSWVRQAPGKGLEWVSSIYAGSSGAPYYAGWAKGRFTISRDNSKNTLYLQMNSLRAEDTAVYYCAREGFAETGGYGYAAYFNLWGPGTLVTVSS
VL: DIQMTQSPSSLSASVGDRVTITCLASEDIASSVSWYQQKPGKAPKLLIYGASNLESGVPSRFSGSGSGTDYTLTISSLQPEDFATYYCLGGYSYSSTGTAFGGGTKVEIK
B5: 14H11 (antibody, V domains shown)
VH: QSLEESGGDLVKPGASLTLTCTASGFSFSSSYYMCWVRQAPGKGLEWIASIYAGSSGAPYYAGWAKGRFTISKTSSTAVTLQMSSLTAADTATYFCAREGFAETGGYGYAAYFNLWGPGTLVTVSS
VL: AIEMTQSPPSLSASVGETVRIRCLASEDIASSVSWYQQKPGKPPTLLIYGASNLESGVPPRFTGSGSGTDYTLTIGGVQAEDAATYYCLGGYSYSSTGTAFGAGTKVEIK

In one experiment the target is T1, human KLK7 (SEQ ID NO: 4 plus a C-terminal FLAG tag) (human, UniProt P49862 30-253). The experiment is described as follows: cell-based or functional assay.
T1 sequence (P49862 30-253): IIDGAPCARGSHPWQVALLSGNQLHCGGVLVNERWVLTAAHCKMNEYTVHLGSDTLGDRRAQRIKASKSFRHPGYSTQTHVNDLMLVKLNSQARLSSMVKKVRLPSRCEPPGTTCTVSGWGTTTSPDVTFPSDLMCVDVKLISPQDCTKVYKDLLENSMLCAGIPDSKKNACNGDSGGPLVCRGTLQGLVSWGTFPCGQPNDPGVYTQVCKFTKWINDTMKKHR
As to B1, the “IC50, inhibition of KLK7 cleavage of Mca-RPKPVE-Nval-WRK(Dnp) (bivalency corrected)” value amounted to 0.37 nM.

On to B2, for which the “IC50, inhibition of KLK7 cleavage of Mca-RPKPVE-Nval-WRK(Dnp) (bivalency corrected)” value is 0.34 nM.

With B3, the “IC50, inhibition of KLK7 cleavage of Mca-RPKPVE-Nval-WRK(Dnp) (bivalency corrected)” value was more than 10 nM.

In the case of B4, the “IC50, inhibition of KLK7 cleavage of Mca-RPKPVE-Nval-WRK(Dnp) (bivalency corrected)” value amounted to 0.29 nM.

The next experiment addresses T2, human KLK5 (human, UniProt Q9Y337 67-293).
T2 sequence: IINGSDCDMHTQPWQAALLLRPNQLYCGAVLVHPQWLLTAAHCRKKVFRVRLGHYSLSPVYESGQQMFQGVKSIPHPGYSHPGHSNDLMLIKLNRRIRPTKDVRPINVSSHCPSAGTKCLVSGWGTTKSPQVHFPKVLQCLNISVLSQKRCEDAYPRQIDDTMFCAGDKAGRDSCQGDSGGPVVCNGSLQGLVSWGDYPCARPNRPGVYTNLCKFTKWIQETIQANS
As to the kind of experiment: cell-based or functional assay.
In the case of B1, the “IC50, inhibition of KLK5 cleavage of Boc-Val-Pro-Arg-AMC (bivalency corrected)” value was determined as 0.67 nM.

Turning to B2, the “IC50, inhibition of KLK5 cleavage of Boc-Val-Pro-Arg-AMC (bivalency corrected)” value is 0.54 nM.

As for B3, the “IC50, inhibition of KLK5 cleavage of Boc-Val-Pro-Arg-AMC (bivalency corrected)” value is 0.46 nM.

For the molecule B4, the “IC50, inhibition of KLK5 cleavage of Boc-Val-Pro-Arg-AMC (bivalency corrected)” value is more than 10 nM.

The target of another experiment is T3, cyno KLK7 (SEQ ID NO: 6 plus a C-terminal FLAG tag) (cynomolgus monkey, UniProt P49862 30-253 (human entry)). As to the kind of experiment: cell-based or functional assay.
T3 sequence (P49862 other isoform, or with tags, fused parts or gaps): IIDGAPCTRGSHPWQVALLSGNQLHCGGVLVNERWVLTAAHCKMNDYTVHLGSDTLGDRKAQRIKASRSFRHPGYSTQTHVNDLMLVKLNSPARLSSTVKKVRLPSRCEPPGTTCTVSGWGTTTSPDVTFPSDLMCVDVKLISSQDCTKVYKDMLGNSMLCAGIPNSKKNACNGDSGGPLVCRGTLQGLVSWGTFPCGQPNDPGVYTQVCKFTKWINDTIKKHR
B1: the “IC50, inhibition of KLK7 cleavage of Mca-RPKPVE-Nval-WRK(Dnp) (bivalency corrected)” value amounted to 0.37 nM.

B2: the “IC50, inhibition of KLK7 cleavage of Mca-RPKPVE-Nval-WRK(Dnp) (bivalency corrected)” value is 0.36 nM.

In the case of B3, the “IC50, inhibition of KLK7 cleavage of Mca-RPKPVE-Nval-WRK(Dnp) (bivalency corrected)” value is more than 10 nM.

As to B4, the “IC50, inhibition of KLK7 cleavage of Mca-RPKPVE-Nval-WRK(Dnp) (bivalency corrected)” value was 0.29 nM.

The target in the next experiment is T4, cynomolgus monkey KLK5 (cynomolgus monkey, UniProt Q9Y337 67-293 (human entry)).
T4 chain: T2 sequence with M9E, R21G, A29G, V71I, R98H, P99S, K128R, K169E, R202K
The experiment is described as follows: cell-based or functional assay.
In the case of B1, the “IC50, inhibition of KLK5 cleavage of Boc-Val-Pro-Arg-AMC (bivalency corrected)” value was determined as 0.73 nM.

As for B2, the “IC50, inhibition of KLK5 cleavage of Boc-Val-Pro-Arg-AMC (bivalency corrected)” value stood at 0.58 nM.

Turning to B3, the “IC50, inhibition of KLK5 cleavage of Boc-Val-Pro-Arg-AMC (bivalency corrected)” value came out at 0.56 nM.

As for B4, the “IC50, inhibition of KLK5 cleavage of Boc-Val-Pro-Arg-AMC (bivalency corrected)” value is more than 10 nM.

A further experiment concerns the target T3, cyno KLK7 (SEQ ID NO: 6 plus a …). The experiment is described as follows: cell-based or functional assay. This is another data set of the same source.
Regarding B5, the “IC50, inhibition of KLK7 cleavage of MCA peptide substrate (bivalency not accounted for)” value amounted to 0.15 nM.

In a further experiment the target is T1, human KLK7 (SEQ ID NO: 4 plus a …). The experiment is described as follows: cell-based or functional assay. This is another data set of the same source.
Take B5: the “IC50, inhibition of KLK7 cleavage of MCA peptide substrate (bivalency not accounted for)” value came out at 0.11 nM.
